Data on 21 molecules can be found in patent publication US20260201396, “New LoxPsym Sites for Large-Scale Orthogonal Cre-Mediated Recombination” (VIB VZW, published 2026).

First the molecules themselves.
B1: LoxPsym-TGG (dsDNA)
DNA 1: ATAACTTCGTATATGGTACCATATACGAAGTTAT
DNA 2: ATAACTTCGTATATGGTACCATATACGAAGTTAT
B2: LoxPsym-CGG (dsDNA)
DNA 1: ATAACTTCGTATACGGTACCGTATACGAAGTTAT
DNA 2: ATAACTTCGTATACGGTACCGTATACGAAGTTAT
B3: LoxPsym-TAG (dsDNA)
DNA 1: ATAACTTCGTATATAGTACTATATACGAAGTTAT
DNA 2: ATAACTTCGTATATAGTACTATATACGAAGTTAT
B4: LoxPsym-TCC (dsDNA)
DNA 1: ATAACTTCGTATATCCTAGGATATACGAAGTTAT
DNA 2: ATAACTTCGTATATCCTAGGATATACGAAGTTAT
B5: LoxPsym-GGT (dsDNA)
DNA 1: ATAACTTCGTATAGGTTAACCTATACGAAGTTAT
DNA 2: ATAACTTCGTATAGGTTAACCTATACGAAGTTAT
B6: LoxPsym-TAT (dsDNA)
DNA 1: ATAACTTCGTATATATTAATATATACGAAGTTAT
DNA 2: ATAACTTCGTATATATTAATATATACGAAGTTAT
B7: LoxPsym-GGA (dsDNA)
DNA 1: ATAACTTCGTATAGGATATCCTATACGAAGTTAT
DNA 2: ATAACTTCGTATAGGATATCCTATACGAAGTTAT
B8: LoxPsym-TAC (dsDNA)
DNA 1: ATAACTTCGTATATACTAGTATATACGAAGTTAT
DNA 2: ATAACTTCGTATATACTAGTATATACGAAGTTAT
B9: LoxPsym-CGC (dsDNA)
DNA 1: ATAACTTCGTATACGCTAGCGTATACGAAGTTAT
DNA 2: ATAACTTCGTATACGCTAGCGTATACGAAGTTAT
B10: LoxPsym-TTA (dsDNA)
DNA 1: ATAACTTCGTATATTATATAATATACGAAGTTAT
DNA 2: ATAACTTCGTATATTATATAATATACGAAGTTAT
B11: LoxPsym-CCG (dsDNA)
DNA 1: ATAACTTCGTATACCGTACGGTATACGAAGTTAT
DNA 2: ATAACTTCGTATACCGTACGGTATACGAAGTTAT
B12: LoxPsym-TGC (dsDNA)
DNA 1: ATAACTTCGTATATGCTAGCATATACGAAGTTAT
DNA 2: ATAACTTCGTATATGCTAGCATATACGAAGTTAT
B13: LoxPsym-TGT (dsDNA)
DNA 1: ATAACTTCGTATATGTTAACATATACGAAGTTAT
DNA 2: ATAACTTCGTATATGTTAACATATACGAAGTTAT
B14: LoxPsym-TTG (dsDNA)
DNA 1: ATAACTTCGTATATTGTACAATATACGAAGTTAT
DNA 2: ATAACTTCGTATATTGTACAATATACGAAGTTAT
B15: LoxPsym-CAG (dsDNA)
DNA 1: ATAACTTCGTATACAGTACTGTATACGAAGTTAT
DNA 2: ATAACTTCGTATACAGTACTGTATACGAAGTTAT
B16: LoxPsym-GCG (dsDNA)
DNA 1: ATAACTTCGTATAGCGTACGCTATACGAAGTTAT
DNA 2: ATAACTTCGTATAGCGTACGCTATACGAAGTTAT
B17: LoxPsym-ACT (dsDNA)
DNA 1: ATAACTTCGTATAACTTAAGTTATACGAAGTTAT
DNA 2: ATAACTTCGTATAACTTAAGTTATACGAAGTTAT
B18: LoxPsym-AAT (dsDNA)
DNA 1: ATAACTTCGTATAAATTAATTTATACGAAGTTAT
DNA 2: ATAACTTCGTATAAATTAATTTATACGAAGTTAT
B19: LoxPsym-GAT (dsDNA)
DNA 1: ATAACTTCGTATAGATTAATCTATACGAAGTTAT
DNA 2: ATAACTTCGTATAGATTAATCTATACGAAGTTAT
B20: LoxPsym-GCT (dsDNA)
DNA 1: ATAACTTCGTATAGCTTAAGCTATACGAAGTTAT
DNA 2: ATAACTTCGTATAGCTTAAGCTATACGAAGTTAT
B21: LoxPsym-CAT (dsDNA)
DNA 1: ATAACTTCGTATACATTAATGTATACGAAGTTAT
DNA 2: ATAACTTCGTATACATTAATGTATACGAAGTTAT

In the data set the target is T1, Cre recombinase (Punavirus P1).
T1 chain: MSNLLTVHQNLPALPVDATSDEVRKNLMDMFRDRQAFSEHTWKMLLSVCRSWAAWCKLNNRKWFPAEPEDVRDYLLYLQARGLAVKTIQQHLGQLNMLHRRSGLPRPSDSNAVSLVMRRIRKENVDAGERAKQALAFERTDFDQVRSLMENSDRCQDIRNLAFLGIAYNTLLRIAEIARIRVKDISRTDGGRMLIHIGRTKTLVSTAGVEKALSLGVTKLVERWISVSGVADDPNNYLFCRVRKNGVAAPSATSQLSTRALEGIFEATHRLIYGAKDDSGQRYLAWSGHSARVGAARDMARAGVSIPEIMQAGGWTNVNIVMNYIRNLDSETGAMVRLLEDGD
The data set can be described thus: cell_activity; as above. The source says: Similar to the development of the original LoxPsym site by Hoess et al. (1986 J Cell Biochem), we edited the spacer of the LoxP site to obtain new non-directional recombination sites. In doing so, we focused on altering the first three nucleotides of the spacer (FIG. 2), as it was shown before that changing the nucleotides at position 4 and 5 of the spacer (T and A respectively) prevents recombination (Hoess et al 1986). The last three nucleotides were adapted accordingly to ensure the spacer remained palindromic. As such, we were able to design maximally 63 new potential LoxPsym sites. To test if the Cre enzyme was still able to recombine the new LoxPsym variants, we conducted a fluorescent-based assay in yeast via genomic integration of a fluorescence cassette which was flanked by identical LoxPsym variants at both sites (FIGS. 3A and 3C). Recombination of functional LoxPsym variants enables the deletion of the fluorescence cassette. The fraction of non-fluorescent cells in the population after induction of Cre-mediated recombination, was used to determine the recombination efficiency of the new LoxPsym sites. To verify if this set-up is valid for estimation of the recombination efficiency, the dual-fluorescent-reporter system shown in FIG. 3A was used to assess the frequency of inversion/deletion over time. […] Recombination efficiencies largely altered between different LoxPsym variants (Table 1). 63 new LoxPsym variants were obtained with altering recombination efficiencies ranging from 13% to 89%.
In the case of B1, the activity stood at 69.1%.

B2: the activity turned out to be 81.5%.

On to B3, for which the activity was found to be 70.3%. Next, B4: 80%.

Take B5: the activity was determined as 38%. In the case of B6 it was 89.3%; in that of B7, 37.1%.

In the case of B8, the activity worked out at 75.3%. Consider B9, for which the activity was 69.4%. In the case of B10 it was 35.8%; in that of B11, 76%. In the case of B12 it was 72%.

As to B13, the activity came out at 82.4%. As to B14, the activity came out at 80.6%. Next, B15: 79.9%. On to B16, for which the activity came out at 79.2%. In the case of B17 it was 70.5%.

Consider B18, for which the activity stood at 71.1%. In the case of B19 it was 36.9%; in that of B20, 37.2%; in that of B21, 79.1%.
